Data on one variant can be found in article PMC6823300, “The molecular basis of monopolin recruitment to the kinetochore” (Chromosoma, 2019).

Sequences and labels used below:
B1: S. pombe Csm1 C-terminal globular domain (residues 125–261), wild type [S. pombe] / Sp Mis13 5–17 peptide (Dsn1-N/Box 1), fluorescein isothiocyanate-labelled [modified: fluorescein isothiocyanate-labelled at its N-terminus; fluorescein … (parent complex)
chain 1: NAGADADDTIVKDLKKELENEKKANHSLKNELLKTREQIKNYSKINILIKELFGLEVADCIEDEDGYRFNCKNTGRRGTLEYQLLLDDQNFTFTPRLNVQTDEELMKHLPDYLLEEIIFTKEQGKLFSARLMKALQD
chain 2: PEEQEGFVFVRKG

The variants in the assay derive from B1. The assay is described as follows: fluorescence polarisation; point at 250 µM protein (highest concentration shown); parent: 140; read off a plot. In general terms: Polarisation of emitted light reports the rotation of a fluorescent probe.
With chain 1 I117D, the response was roughly 73 mP.
